Test results taken from US20190309035A1, “PEPTIDE OR COLLECTION OF PEPTIDES DERIVED FROM AMYLOID PRECURSOR PROTEIN” (Ludwig-Maximilians-Universität München, priority 2015, published 2019).
“Also recorded” adds a separate entry of the source.

B1: Aη-α: Aη-α-peptide (residues 505-612 of P05067-4), 108 aa, expressed in CHO cells and enriched by SEC (protein, listed as Homo sapiens)
chain: MISEPRISYGNDALMPSLTETKTTVELLPVNGEFSLDDLQPWHSFGADSVPANTENEVEPVDARPAADRGLTTRPGSGLTNIKTEEISEVKMDAEFRHDSGYEVHHQK
B2: Aη-β: Aη-β-peptide (residues 505-596 of P05067-4), 92 aa, expressed in CHO cells and enriched by SEC (protein, listed as Homo sapiens)
chain: MISEPRISYGNDALMPSLTETKTTVELLPVNGEFSLDDLQPWHSFGADSVPANTENEVEPVDARPAADRGLTTRPGSGLTNIKTEEISEVKM

Columns and labels:
hippocampal LTP = assay: Long-term potentiation (LTP) recordings in acute hippocampal slices (fEPSP at the CA3-CA1 synapse); format: cell-based, mouse; settings: for fEPSP baseline responses after incubation with SEC fractions: 1/15 dilution, 15 min bath application before LTP induction
Protocol: a) Aη-α and Aη-β peptides were expressed in CHO cells and collected in OPTIMEM medium. […] Higher molecular weight bands are most likely due to posttranslational modification by glycosylation. b-e) SEC fractions enriched for Aη were diluted (1:15) in ACSF for the treatment of hippocampal slices and LTP measurements. Aη-α, Aη-β and control SEC fractions (obtained from CHO cells transfected with the empty vector) were perfused over mouse hippocampal slices for 15 min after obtaining a stable baseline of a fEPSP at the CA3-CA1 synapse.
OPTIMEM was used to collect CHO cell supernatants. SEC was performed with concentrated CHO supernatants using a FPLC (ÄKTApurifier) equipped with a Superdex75 column (GE Healthcare). 1 ml samples were collected with a mobile phase flow rate set at 0.5 ml/min in standard ACSF. Acute hippocampal slices were prepared from Swiss mice (PND20-30) and kept in ACSF^42. Extracellular field excitatory post-synaptic potentials (fEPSPs) were obtained from CA1 pyramidal neurons. After 15 minutes of bath application of SEC fractions^43, LTP was induced by high frequency stimulation (2 pulses of 100 Hz for 1 second with a 20 second inter-pulse interval). LTP was recorded for 60 minutes and statistical analysis was performed on the last 15 minutes of recording compared to baseline fEPSP values.
Transverse hippocampal slices ([…]) were prepared from postnatal day 20-30 Swiss mice following standard procedures^56. Slices were cut in ice-cold oxygenated (95% O2/5% CO2) solution containing 206 mM sucrose, 2.8 mM KCl, 1.25 mM NaH2PO4, 2 mM MgSO4, 1 mM MgCl2, 1 mM CaCl2, 26 mM NaHCO3, 0.4 mM sodium ascorbate, 10 mM glucose (pH 7.4). For recovery (1 h), slices were incubated at 27° C. in oxygenated standard artificial cerebrospinal fluid (ACSF) containing: 124 mM NaCl, 2.8 mM KCl, 1.25 mM NaH2PO4, 2 mM MgSO4, 3.6 mM CaCl2, 26 mM NaHCO3, 0.4 mM sodium ascorbate, 10 mM glucose (pH 7.4)^57. Slices were inspected in a chamber on an upright microscope (Slicescope, Scientifica Ltd) with IR-DIC illumination and were perfused with the oxygenated ACSF at 27±1° C. Field excitatory post-synaptic potentials (fEPSPs) were recorded in the stratum radiatum of the CA1 region using a glass electrode (filled with 1 M NaCl/10 mM HEPES, pH 7.4) and the stimuli (30% of maximal fEPSP) were delivered to the Schaeffer Collateral pathway by a monopolar glass electrode (filled with ACSF). Electrodes were specifically placed just below the surface of the slice to maximize the exposure to circulating peptides. A minimum of 15 minutes stable baseline was first obtained in standard ACSF followed by another 15 minutes of bath application of ACSF containing SEC fractions (CHO, Aη-α or Aη-β; 1/15 dilution, interleaved recordings) using re-circulation with a peristaltic pump at 2.5-3 ml min^−1 while being continuously aerated with 95% oxygen. […] In the continuous presence of the ACSF/SEC solution, LTP was then induced using a high frequency stimulation (HSF) protocol with 2 pulses of 100 Hz for 1 sec with 20 see interval between pulses, and recorded for one hour. Control recordings (no application of SEC fractions) were obtained in an interleaved fashion where ACSF was re-circulated using an identical procedure. For LTP analysis, the first third of the fEPSP slope was calculated in baseline condition (15 minutes prior to induction of LTP and for 60 minutes post-induction). […]

BACE1 = target: T1, BACE1 (Cricetulus griseus, UniProt G3IAK4); assay: BACE1 inhibitor treatment of CHO cells expressing human APPV717F, Western blot of supernatants; format: cell-based; settings: 2 μM
T1 construct: endogenous in cells; host or cells: CHO cells overexpressing human APPV717F (CHO / 7PA2)
Protocol: a) Supernatants of CHO cells expressing human APPV717F without or with BACE1 inhibition (BI; 2 μM Merck IV) were compared to synthetic peptides of Aη-β and Aη-α. Increased Aη-α peptide levels were observed upon BACE1 inhibitor treatment with 2D8 and 2E9 antibodies. The fragment with the lowest molecular weight, co-migrating with the synthetic peptide Aη-β, disappeared upon BACE1 inhibition b) After overnight incubation of DIV 16 primary hippocampal neurons without or with the BACE1 inhibitor (BI; 2 μM Merck IV), supernatants were analyzed by Western blotting. […] Total levels of secreted APP (22C11) were unchanged while sAPP-α levels increased. […] Inhibitor treated mice and vehicle treated controls were sacrificed and analyzed after 5, 8 or 24 h. […]
CHO and 7PA2^44 cells were grown in DMEM/F12 (Thermo Scientific) supplemented with 10% fetal calf serum (FCS, Thermo Scientific) plus Penicillin/Streptomycin and NEAA (Non-essential amino acids, PAA) in a humid incubator with 5% CO2 at a temperature of 37° C. […] The protein concentration of lysates was determined using the Uptima BC Assay Protein Quantitation kit (Interchim).
Proteins were separated under denaturing conditions using discontinuous SDS-PAGE. […] CTFs, Aη and Aβ were detected after transfer on Nitrocellulose membranes (Protran BA85; GE Hlealthcare), while other proteins were blotted on PVDF (Immobilon-P, Merck Millipore). […]

[1] = SEC fractions from conditioned media of CHO cells, diluted 1:15 in ACSF, perfused 15 min before HFS, LTP 45-60 min post-HFS

T1 sequence (G3IAK4 22-501): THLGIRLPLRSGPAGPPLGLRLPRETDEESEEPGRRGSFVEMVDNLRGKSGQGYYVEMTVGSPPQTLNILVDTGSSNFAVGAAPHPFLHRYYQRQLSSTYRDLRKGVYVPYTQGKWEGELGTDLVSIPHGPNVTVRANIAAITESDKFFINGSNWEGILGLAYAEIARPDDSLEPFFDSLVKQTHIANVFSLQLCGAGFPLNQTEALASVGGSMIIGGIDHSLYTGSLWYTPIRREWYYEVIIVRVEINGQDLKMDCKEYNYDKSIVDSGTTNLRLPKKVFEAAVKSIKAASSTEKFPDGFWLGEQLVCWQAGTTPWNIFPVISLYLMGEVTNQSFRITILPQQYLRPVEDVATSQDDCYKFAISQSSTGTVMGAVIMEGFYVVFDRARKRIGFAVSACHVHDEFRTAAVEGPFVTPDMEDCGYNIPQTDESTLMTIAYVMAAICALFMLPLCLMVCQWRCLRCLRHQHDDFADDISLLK

Row | Molecule | effect on LTP (hippocampal LTP; 100 nM final in 25 ml re-circulating ACSF, vs interleaved ACSF recordings, 45-60 min post-LTP induction) | lowest molecular weight fragment co-migrating with synthetic Aη-β (BACE1) | Aη-α peptide levels in supernatant (BACE1; 2D8 and 2E9 antibodies) | fEPSP baseline responses after incubation with SEC fractions (hippocampal LTP) | effect on LTP (hippocampal LTP; [1])
1 | AβS26C dimers: AβS26C dimers from JPT Peptide Technologies, Germany [reference compound] | reduced | – | – | – | –
2 | C[C@@H](NC(=O)c1cc(C(=O)N[C@@H](Cc2ccccc2)[C@H](O)CNC2CC2)cc(N(C)S(C)(=O)=O)c1)c1ccccc1 [Merck IV] | – | disappeared | Increased | – | –
3 | B1 | – | – | – | No alterations | significantly inhibited
4 | B2 | – | – | – | No alterations | had no effect; also recorded: did not significantly inhibit
